Test results from patent US20260234260A1 (EUCURE BEIJING BIOPHARMA, published 2026).
Read-outs that look alike come from different tables or passages of the source.

Legend:
[1] = target: T1, human CD40 expressed on Jurkat-Luc-hCD40 reporter cells (human, UniProt P25942 21-277); assay: cell-based or functional assay
[2] = target: T2, human CD40/TNFRSF5 Protein, His Tag (ACRO Biosystems Cat #CD0-H5228) (human, UniProt P25942 21-193); assay: SPR (Biacore), hCD40
T2 construct: Bought protein; also called hCD40; human CD40 protein; not shown: His tag
T2 sequence (P25942 21-193 limits assumed): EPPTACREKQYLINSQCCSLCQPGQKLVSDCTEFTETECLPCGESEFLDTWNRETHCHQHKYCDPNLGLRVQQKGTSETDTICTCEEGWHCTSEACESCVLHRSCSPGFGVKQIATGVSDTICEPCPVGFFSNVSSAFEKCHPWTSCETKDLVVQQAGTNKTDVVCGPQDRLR
Protocol: The binding affinity to human […] (hCD40) was determined by Biacore systems.

[3] = target: T1, human CD40 expressed on …; assay: cell-based or functional assay; remark: listed apart in the source
[4] = target: T2, human CD40/TNFRSF5 Protein, His Tag …; assay: SPR (Biacore), antibody captured, His-tagged hCD40 in solution
[5] = target: T1, human CD40 expressed on …; assay: cell-based or functional assay; remark: listed apart in the source
[6] = target: T1, human CD40 expressed on …; assay: cell-based or functional assay; remark: listed apart in the source
[7] = target: T1, human CD40 expressed on …; assay: cell-based or functional assay; remark: listed apart in the source

T1 sequence (P25942 21-277 limits assumed): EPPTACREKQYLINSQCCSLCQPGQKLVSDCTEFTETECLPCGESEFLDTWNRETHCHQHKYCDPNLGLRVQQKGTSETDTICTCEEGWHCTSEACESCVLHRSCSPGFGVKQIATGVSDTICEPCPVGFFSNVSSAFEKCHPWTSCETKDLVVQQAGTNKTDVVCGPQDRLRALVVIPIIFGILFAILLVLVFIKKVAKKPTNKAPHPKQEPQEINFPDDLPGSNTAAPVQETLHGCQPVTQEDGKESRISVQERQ

EC50 Value (ug/ml), luminescence of Jurkat-Luc-hCD40 reporter cells in the presence of CHO-K1-hFcγRIIB basal cells [1]: 0.0203 µg/mL
Kd [2]: 3.06 nM
koff [2]: 0.000322 s⁻¹
kon [2]: 105000 M⁻¹ s⁻¹
EC50 (read off the curve), luciferase Rlu, Jurkat-Luc-hCD40 reporter cells with CHO-K1-hFcγRIIB basal cells [3]: ~0.02 µg/mL
Kd [4]: 3.06 nM
koff [4]: 0.000322 s⁻¹
kon [4]: 105000 M⁻¹ s⁻¹
EC50 (read off the curve), luciferase Rlu, Jurkat-Luc-hCD40 reporter cells, no basal cells [5]: ~0.3 µg/mL
EC50 (read off the curve), luciferase Rlu, Jurkat-Luc-hCD40 reporter cells with CHO-K1-hFcγRIIB basal cells [6]: ~0.01 µg/mL
EC50 Value (ug/ml), luminescence of Jurkat-Luc-hCD40 reporter cells in the presence of Jurkat-hPD1 basal cells [7]: 0.0089 µg/mL
B1: anti-CD40 monoclonal antibody 6A7-H4K2-IgG2 (antibody, V domains shown)
VH: QVQLVQSGAEVKKPGASVKLSCKASGYTFISYYIYWVKQAPGQGLEWIGGINPRNGGTNFNEKFKSRATLTVDTSISTAYMELSRLRSEDTAVYYCTRHGNGVYWGQGTTLTVSS
VL: DVVMTQSPLSLPVTLGQPASISCRSSQSLLHSNGNTYLHWYQQRPGQSPNHLIYQVSNRFSGVPDRFSGSGSGTDFTLKISRVEAEDVGVYFCSQTTHVPWTFGGGTKVEIK
notes: IgG2; also called CD40 (6A7-H4K2-IgG2); C40 (6A7-H4K2-IgG2)
